The target in the assay is chimeric LILRB2-PILRβ receptor (aa 24-458 of hLILRB2) on mouse T cell hybridoma NFAT-GFP reporter cells (human) (UniProt Q8N423). The assay can be described thus: cell-based or functional assay.

This is an account of results in patent US20170260508A1.

Chain of chimeric LILRB2-PILRβ receptor (aa 24-458 of hLILRB2) on mouse T cell hybridoma NFAT-GFP reporter cells (human) (Q8N423 other isoform, or with tags, fused parts or gaps mutant limits assumed, form in doubt): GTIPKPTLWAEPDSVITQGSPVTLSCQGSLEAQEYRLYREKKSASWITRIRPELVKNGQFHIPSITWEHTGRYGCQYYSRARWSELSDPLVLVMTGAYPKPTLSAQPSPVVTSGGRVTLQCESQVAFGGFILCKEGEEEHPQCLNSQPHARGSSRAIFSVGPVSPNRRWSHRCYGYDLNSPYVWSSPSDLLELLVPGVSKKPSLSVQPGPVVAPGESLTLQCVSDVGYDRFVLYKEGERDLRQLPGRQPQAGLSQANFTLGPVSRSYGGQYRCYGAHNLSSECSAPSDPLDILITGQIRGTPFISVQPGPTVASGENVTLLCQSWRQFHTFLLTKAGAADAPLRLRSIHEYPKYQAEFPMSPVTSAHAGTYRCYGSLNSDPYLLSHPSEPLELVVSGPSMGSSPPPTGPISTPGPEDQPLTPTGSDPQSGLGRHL

For the substance “GST-human Angptl2, bacterially expressed (GST-Angptl2-FLAG) (from UniProt Q9UKU9 23-493) (ligand)”, the GFP expression of LILRB2 reporter cells, immobilized monomeric GST-Angptl2 is 20%; the GFP expression of LILRB2 reporter cells, soluble monomeric GST-Angptl2 came out at 3.56%; the GFP induction of LILRB2 reporter cells by immobilized Angptl2, no antibody worked out at 19.9%.
